Measurements: publication PMC12319266, “The Highly Conserved Cys95 Residue of Fructose‐1,6‐Bisphosphatase 1 Mediates the pH‐Driven Structure and Activity of the Enzyme and Photosynthesis” (Plant, Cell & Environment, 2025)
Numbering of substitutions follows the chain as printed. Names and notes keep the numbering of the source.

B1: recombinant mature wild-type fructose-1,6-bisphosphatase 1 (cFBP1) of Arabidopsis (enzyme, Arabidopsis thaliana, UniProt P25851 60-417, looked up)
chain: AVAADAAETKTAARKKSGYELQTLTGWLLRQEMKGEIDAELTIVMSSISLACKQIASLVQRAGISNLTGVQGAVNIQGEDQKKLDVISNEVFSNCLRSSGRTGIIASEEEDVPVAVEESYSGNYVVVFDPLDGSSNIDAAVSTGSIFGIYSPNDECIVDDSDDISALGSEEQRCIVNVCQPGNNLLAAGYCMYSSSVIFVLTLGKGVFSFTLDPMYGEFVLTQENIEIPKAGRIYSFNEGNYQMWDDKLKKYIDDLKDPGPTGKPYSARYIGSLVGDFHRTLLYGGIYGYPRDAKSKNGKLRLLYECAPMSFIVEQAGGKGSDGHSRVLDIQPTEIHQRVPLYIGSTEEVEKLEKYLA
notes: Fructose-1,6-bisphosphatase 1, chloroplastic (cFBP1), Arabidopsis thaliana, gene At3g54050; ca. 40 kDa on SDS-PAGE; numbers count on: the mature protein; The number of chains depends on pH: tetramer at pH 7.0, dimer at pH 8.3, mainly dimer at pH 7.8 when fresh; Expressed from pDEST17, which to my knowledge adds an N-terminal His6; No step to cleave the tag is described; also called WT cFBP1; WT
B2: recombinant mature C95S variant of fructose-1,6-bisphosphatase 1 (cFBP1) of Arabidopsis (enzyme, Arabidopsis thaliana, UniProt P25851 60-417, looked up)
chain: B1 chain with C95S
notes: Fructose-1,6-bisphosphatase 1, chloroplastic (cFBP1), Arabidopsis thaliana, gene At3g54050; Cys95 replaced by Ser; numbers count on: the mature protein; The number of chains depends on pH: tetramer at pH 7.0, dimer at pH 8.3, mainly tetramer at pH 7.8; Expressed from pDEST17, which to my knowledge adds an N-terminal His6; No step to cleave the tag is described; also called C95S cFBP1; cFBP1 C95S

How the values were obtained:
[1] = biological target: the molecule itself; assay: SEC; Superdex 200 HR 10/30, 50 mM Tris pH 7.0/0.15 M NaCl, 0.3 mL/min; native mass against protein standards
[2] = biological target: the molecule itself; assay: SEC; Superdex 200 HR 10/30, 50 mM Tris pH 8.3/0.15 M NaCl, 0.3 mL/min; native mass against protein standards

Row | Protein | stoichiometry N [1] | stoichiometry N [2]
1 | B1 | 4 | 2
2 | B2 | 4 | 2
